This note sets out measurements from patent US20060292657A1, “Phex substrates and methods using same” (priority 2003, published 2006).

Common to all, as to assay: Kinetic parameters for hydrolysis of internally quenched fluorogenic peptides by secPHEX
Format in all cases: biochemical, human
Conditions in all cases: other: 37° C., 10 mM Bis-Tris buffer pH 5.5, 150 mM NaCl

Substrate in data set [1]: C[C@H](NC(=O)[C@H](CCC(N)=O)NC(=O)[C@H](CO)NC(=O)[C@H](CC(=O)O)NC(=O)[C@H](CCCNC(=N)N)NC(=O)[C@H](CCC(N)=O)NC(=O)[C@@H]1CCCN1C(=O)CNC(=O)c1ccccc1N)C(=O)N[C@@H](CCC(N)=O)C(=O)NCCNc1ccc([N+](=O)[O-])cc1[N+](=O)[O-]
As for the experimental part:
(§1) The human recombinant secPHEX was obtained following the procedure previously described (17, WO 00/50580). Purified secPHEX concentration was determined using the Bradford method (DC protein assay kit; Bio-Rad, Mississauga, ON, Canada). Membrane-bound recombinant human PHEX was expressed in LLC-PK1 cells (17, (WO 00/50580)) and membranes were prepared essentially as described by Guo et al. (34). Briefly, transfected cells resuspended in lysis buffer (150 mM NaCl, 20 mM Tris.HCl, pH 7.6) were disrupted by sonication. Cell debris were removed by centrifugation at 300 g for 15 min at 4 °C. Membranes were collected by centrifugation at 30,000 g for 50 min and solubilized for 2h with 1% n-dodecyl-β-D-maltoside in lysis buffer. Insoluble material was pelleted by centrifugation at 10,000 g for 15 min and protein concentrations of the supernatant determined using the Bradford method described above. PHEX amounts were evaluated by immunoblotting as described previously (17). NEP expression and purification were performed as described previously (36).
(§2) The hydrolysis of the IQFPs, at 37° C., in 10 mM Bit-Tris buffer pH 5.5 (0.35 to 1.0 ml final volume) containing 150 mM NaCl, was continuously followed measuring the fluorescence at γem=420 nm and γex=320 nm in a Hitachi F-2000™ spectrofluorometer. The cuvefte containing the buffer and the substrate was placed in a thermostatically controlled cell compartment for 5 min before the addition of the enzyme and the increase in fluorescence with time was continuously recorded for 5-10 min. The enzyme concentration for initial rate determination was chosen at a level intended to hydrolyze less than 5% of the substrate present. The slope was converted into micromoles of substrate hydrolyzed per min based on a calibration curve obtained from complete hydrolysis of each peptide. The inner-filter effect was corrected using an empirical equation as previously described (43). The kinetic parameters Km and kcat were calculated by the non-linear regression data analysis Grafit program (42). The kcat/Km values were calculated as the ratio of these two determined parameters. The apparent second order rate constant kcat/Km (*kIt/Km) was determined under pseudo first-order conditions, where [S]<<Km. These determinations were performed in two different substrate concentrations and the errors were less than 5% for any obtained value.
(§3) To determine the position of cleavage in peptides of the IQFPs combinatorial libraries, the products resulting from hydrolysis by secPHEX were submitted to N-terminal amino acid sequencing in a PPSQ-23protein sequencer (Shimadzu Tokyo, Japan). The scissile bonds in the IQFPs secPHEX substrates derived from PTHrP107-139, FGF-23and MEPE were determined by amino acid sequencing and by MALDI-TOF™ mass spectrometry (TofSpec-E™, Micromass, Manchester, U.K.) after isolation of the fragments resulting from the hydrolysis by secPHEX by analytical HPLC.
(§4) The assays were performed at 37° C., in 10 mM Bis-Tris buffer pH 5.5, containing 150 mM NaCl. Measurements were made as described under the heading “Experimental Procedures” above. Cleavage sites are indicated as arrows (↓). The standard deviations of the kinetic constants were less than 5%.
(§5) The assays were performed at 37° C., in 10 mM Bis-Tris buffer pH 5.5, containing 150 mM NaCl. Measurements were made as described under the heading “Experimental Procedures” above. Cleavage sites are indicated by arrows (↓). The standard deviations of the kinetic constants were less than 5%.
(§6) The assays were. performed at 37° C., in 10 mM Bis-Tris buffer pH 5.5, containing 150 mM NaCl. Measurements were made as described under the heading “Experimental Procedures” above. Cleavage sites are indicated by arrows (↓). The standard deviations of the kinetic constants were less than 5%.
(§7) The assays were performed at 37° C., in 10 mM Bis-Tris buffer pH 5.5, containing 150 mM NaCl. Measurements were made as described under “Experimental Procedures”. […]

Substrate in data set [2]: C[C@H](NC(=O)[C@H](CC(=O)O)NC(=O)[C@H](CCC(=O)O)NC(=O)[C@H](CO)NC(=O)[C@H](CCCNC(=N)N)NC(=O)c1ccccc1N)C(=O)NCC(=O)N[C@@H](Cc1ccccc1)C(=O)N[C@@H](CCC(N)=O)C(=O)NCCNc1ccc([N+](=O)[O-])cc1[N+](=O)[O-]
The method, then:
as §1, §2, §3, §4, §5, §6, §7

Substrate in data set [3]: CSCC[C@H](NC(=O)[C@H](CC(C)C)NC(=O)c1ccccc1N)C(=O)N[C@@H](CCSC)C(=O)N[C@@H](CC(=O)O)C(=O)N[C@@H](Cc1ccccc1)C(=O)N[C@@H](CCCNC(=N)N)C(=O)NCC(=O)N[C@@H](CCC(N)=O)C(=O)NCCNc1ccc([N+](=O)[O-])cc1[N+](=O)[O-]
The method, then: as §1, §2, §3, §4, §5, §6, §7

Substrate in data set [4]: CSCC[C@H](NC(=O)[C@H](CCC(=O)O)NC(=O)[C@H](CC(N)=O)NC(=O)c1ccccc1N)C(=O)N[C@@H](CC(=O)O)C(=O)N[C@@H](CO)C(=O)N[C@@H](Cc1ccccc1)C(=O)N[C@@H](CC(N)=O)C(=O)N[C@@H](CCC(N)=O)C(=O)NCCNc1ccc([N+](=O)[O-])cc1[N+](=O)[O-]
As for the experimental part:
as §1, §2, §3, §4, §5, §6, §7

B1: human recombinant secPHEX (Homo sapiens) (protein)
chain: SLQAKQEYCLKPECIEAAAAILSKVNLSVDPCDNFFRFACDGWISNNPIPEDMPSYGVYPWLRHNVDLKLKELLEKSISRRRDTEAIQKAKILYSSCMNEKAIEKADAKPLLHILRHSPFRWPVLESNIGPEGVWSERKFSLLQTLATFRGQYSNSVFIRLYVSPDDKASNEHILKLDQATLSLAVREDYLDNSTEAKSYRDALYKFMVDTAVLLGANSSRAEHDMKSVLRLEIKIAEIMIPHENRTSEAMYNKMNISELSAMIPQFDWLGYIKKVIDTRLYPHLKDISPSENVVVRVPQYFKDLFRILGSERKKTIANYLVWRMVYSRIPNLSRRFQYRWLEFSRVIQGTTTLLPQWDKCVNFIESALPYVVGKMFVDVYFQEDKKEMMEELVEGVRWAFIDMLEKENEWMDAGTKRKAKEKARAVLAKVGYPEFIMNDTHVNEDLKAIKFSEADYFGNVLQTRKYLAQSDFFWLRKAVPKTEWFTNPTTVNAFYSASTNQIRFPAGELQKPFFWGTEYPRSLSYGAIGVIVGHEFTHGFDNNGRKYDKNGNLDPWWSTESEEKFKEKTKCMINQYSNYYWKKAGLNVKGKRTLGENIADNGGLREAFRAYRKWINDRRQGLEEPLLPGITFTNNQLFFLSYAHVRCNSYRPEAAREQVQIGAHSPPQFRVNGAISNFEEFQKAFNCPPNSTMNRGMDSCRLW
notes: pure soluble form of PHEX (secPHEX); made in house
Consider B1, for which the Km in data set [1] is 47.0 µM; in data set [2], 4.1 µM; in data set [3], 17.0 µM; in data set [4], 38.0 µM. Moreover, the kcat in data set [1] came to 0.2 s⁻¹; in data set [2] it was 0.06 s⁻¹; in data set [3], 0.8 s⁻¹; in data set [4], 0.3 s⁻¹. Also, the kcat/Km in data set [1] is 4300 M⁻¹ s⁻¹; in data set [2], 14600 M⁻¹ s⁻¹; in data set [3], 45000 M⁻¹ s⁻¹; in data set [4], 7900 M⁻¹ s⁻¹.
